# Data: publication PMC8385704 (Signal Transduction and Targeted Therapy, 2021)
# B1: monoclonal antibody 3E8 (antibody, V domains shown)
# VH: EVQLEESGAELVRPGASVKISCKAFGYTFTNHHINWMKQRPGQGLDWIGYVNPYNDYTKYSQNFKGKATLSVDRSSSTAYMELSSLTSEDSAVYYCARWRDYDRDWYFDVWGAGTTVIVSS
# VL: DIVMTQSPATLSVTPGDRVSLSCRASQSIRDYLYWYQQKSHESPRLLIKYASQSISGIPSRFSGSGSGSDFTLSINSVEPEDVGVYYCQNGHSFPYTFGGGTKLEIK
# Columns and labels:
# [1] = molecular target: T1, His-tagged recombinant human ACE2 protein (residues 19-740), dimeric (Homo sapiens, UniProt Q9BYF1); experiment: BLI; conditions: both partners purified
# T1 construct: also called hACE2-his; His-tagged human ACE2
# [2] = molecular target: T1, His-tagged recombinant human ACE2 …; experiment: ELISA; 3E8 and His-tagged recombinant human ACE2 protein; who was coated is not told; conditions: both partners purified
# T1 sequence (Q9BYF1 19-740): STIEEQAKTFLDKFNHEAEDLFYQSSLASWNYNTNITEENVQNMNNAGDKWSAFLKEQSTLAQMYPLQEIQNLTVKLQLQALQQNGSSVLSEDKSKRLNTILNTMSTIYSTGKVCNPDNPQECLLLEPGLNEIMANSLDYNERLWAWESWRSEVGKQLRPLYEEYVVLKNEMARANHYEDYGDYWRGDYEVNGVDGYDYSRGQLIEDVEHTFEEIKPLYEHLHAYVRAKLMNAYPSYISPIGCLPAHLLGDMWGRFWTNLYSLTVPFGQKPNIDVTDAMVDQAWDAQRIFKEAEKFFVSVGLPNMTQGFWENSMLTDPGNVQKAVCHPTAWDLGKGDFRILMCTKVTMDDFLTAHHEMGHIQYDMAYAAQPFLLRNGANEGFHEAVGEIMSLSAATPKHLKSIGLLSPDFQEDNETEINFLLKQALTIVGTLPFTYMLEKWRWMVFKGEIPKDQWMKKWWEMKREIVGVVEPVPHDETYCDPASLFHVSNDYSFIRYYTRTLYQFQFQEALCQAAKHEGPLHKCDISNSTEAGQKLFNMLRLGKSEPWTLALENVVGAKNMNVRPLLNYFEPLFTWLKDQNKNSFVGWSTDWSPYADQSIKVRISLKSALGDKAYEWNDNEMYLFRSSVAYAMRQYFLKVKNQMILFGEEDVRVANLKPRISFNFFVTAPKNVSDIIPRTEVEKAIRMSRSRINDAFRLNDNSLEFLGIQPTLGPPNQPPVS
binder,measurement,setting,value
B1,Kd,[1],30.5 nM
same,EC50,[2],15.3 nM
